Test results from PMC6889141, “In vivo methylation of OLA1 revealed by activity-based target profiling of NTMT1† †Electronic supplementary information (ESI) available. See DOI: 10.1039/c9sc02550b” (Chemical Science, 2019).

Target: T1, N-Terminal methyltransferase 1 (NTMT1), wild type (UniProt Q9BV86 1-223)
T1 construct: N-terminal methyltransferase 1 (NTMT1), wild type; they probably stand in the ESI; also called wt NTMT1
T1 sequence (looked up): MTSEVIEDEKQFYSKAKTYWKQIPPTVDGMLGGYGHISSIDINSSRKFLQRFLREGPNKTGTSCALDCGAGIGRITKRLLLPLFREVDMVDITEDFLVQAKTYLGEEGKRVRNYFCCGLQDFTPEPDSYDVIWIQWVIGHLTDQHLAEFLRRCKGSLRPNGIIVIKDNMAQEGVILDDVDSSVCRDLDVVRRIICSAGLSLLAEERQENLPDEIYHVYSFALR
Experiment: ITC; affinity of RCC1 peptide with wt NTMT1; conditions, and which of the two was titrated, not told in the text shown
Conditions: both partners purified

- Kd: 1220 ± 20 nM
B1: RCC1p, peptide of the first 10 N-terminal residues of RCC1 after initial methionine removal (peptide, UniProt P18754 2-11, looked up)
peptide: SPKRIAKRRS
notes: RCC1, the first 10 N-terminal residues after removal of the initial methionine (residues 2-11 counted with the methionine as 1); also called RCC1 peptide; source: synthetic peptide
